This test concerns the target MBP + FGFR2 31-406 (ECD + TM) (human) (UniProt P21802). In words: SEC; main elution fraction (1.5 M NaCl, 0.1% DDM) of a heparin affinity column loaded first with FGF1 and then with refolded MBP-FGFR2 ECD + TM, run on size exclusion chromatography; peaks analysed by SDS-PAGE and western blot (anti-MBP, anti-His-tag).

In the case of “MBP + FGFR2 31-406 (ECD + TM) (from UniProt P21802 31-406) (domain or fragment)”, the stoichiometry N – broadly, the number of molecules, sites or subunits per partner or assembly – stood at 2.
